Data on ten proteins can be found in paper PMC7020226, “Enzymatic Properties of Recombinant Phospho-Mimetic Photorespiratory Glycolate Oxidases from Arabidopsis thaliana and Zea mays” (Plants, 2019).

Where a chain is given by its changes, count along the chain named. Numbers in names are those of the source.

B1: AtGOX2 (Arabidopsis thaliana) (protein)
chain: MEITNVTEYDAIAKAKLPKMVYDYYASGAEDQWTLQENRNAFARILFRPRILIDVNKIDMATTVLGFKISMPIMVAPTAFQKMAHPDGEYATARAASAAGTIMTLSSWATSSVEEVASTGPGIRFFQLYVYKNRKVVEQLVRRAEKAGFKAIALTVDTPRLGRRESDIKNRFTLPPNLTLKNFEGLDLGKMDEANDSGLASYVAGQIDRTLSWKDIQWLQTITNMPILVKGVLTGEDARIAIQAGAAGIIVSNHGARQLDYVPATISALEEVVKATQGRVPVFLDGGVRRGTDVFKALALGASGIFIGRPVVFALAAEGEAGVKKVLQMLRDEFELTMALSGCRSLSEITRNHIVTEWDTPRHLPRL
notes: full length, N-terminal His-tag, pET28a, expressed in Escherichia coli
B2: ZmGO1 (Zea mays) (protein)
chain: MGEITNVMEYQAIAKQKLPKMAYDYYASGAEDEWTLQENREAFSRILFRPRILIDVSKIDMTTTVLGFKISMPIMVAPTAMQKMAHPDGEYATARAAAAAGTIMTLSSWATSSVEEVASTGPGIRFFQLYVYKDRKVVEQLVRRAERAGFKAIALTVDTPRLGRREADIKNRFVLPPHLTLKNFEGLDLGKMDQAADSGLASYVAGQVDRTLSWKDVKWLQTITTLPILVKGVLTAEDTRLAVANGAAGIIVSNHGARQLDYVPATISALEEVVKAARGQLPVFVDGGVRRGTDVFKALALGAAGVFVGRPVVFSLAAAGEAGVSNVLRMLRDEFELTMALSGCTSLAEITRKHIITESDKLSAIPSRL
notes: as for B1
B3: AtGOX1 (Arabidopsis thaliana) (protein)
chain: MEITNVTEYDAIAKQKLPKMVYDYYASGAEDQWTLQENRNAFARILFRPRILIDVSKIDMTTTVLGFKISMPIMVAPTAMQKMAHPDGEYATARAASAAGTIMTLSSWATSSVEEVASTGPGIRFFQLYVYKNRNVVEQLVRRAERAGFKAIALTVDTPRLGRRESDIKNRFTLPPNLTLKNFEGLDLGKMDEANDSGLASYVAGQIDRTLSWKDVQWLQTITKLPILVKGVLTGEDARIAIQAGAAGIIVSNHGARQLDYVPATISALEEVVKATQGRIPVFLDGGVRRGTDVFKALALGASGIFIGRPVVFSLAAEGEAGVRKVLQMLRDEFELTMALSGCRSLKEISRNHITTEWDTPRPSARL
notes: full length (367 residues), N-terminal His-tag, pET28a, expressed in Escherichia coli
B4: AtGOX2 (Arabidopsis thaliana; T265D) (protein)
chain: B1 chain with T265D
B5: AtGOX2 (Arabidopsis thaliana; T158V) (protein)
chain: B1 chain with T158V
B6: AtGOX2 (Arabidopsis thaliana; T4D) (protein)
chain: B1 chain with T4D
B7: AtGOX1 (Arabidopsis thaliana; T265D) (protein)
chain: B3 chain with T265D
B8: AtGOX1 (Arabidopsis thaliana; T158V) (protein)
chain: B3 chain with T158V
B9: AtGOX1 (Arabidopsis thaliana; T4D) (protein)
chain: B3 chain with T4D
B10: ZmGO1 (Zea mays; T159V) (protein)
chain: B2 chain with T159V
notes: as for B1

Substrate in the first series: C[C@H](O)C(=O)O
The series can be described thus: purified protein. The conditions noted are these: 50 mM Tris-HCl pH 8.0, 0.1 mM FMN, 30 °C.
Broadly, the Km is the substrate concentration at which the rate is half of its maximum. A word on the kcat: it is the number of substrate molecules converted per active site and unit of time at saturation. As for B1, the Km is on record as 2094 ± 791 µM and the kcat turned out to be 6.81 s⁻¹.
For B2, in that order: 495 ± 75 µM and 10.8 s⁻¹.
Regarding B3, the Km was determined as 1664 ± 293 µM and the turnover number (kcat) stood at 9.09 s⁻¹.

Substrate in another series: O=C(O)CO
The series can be described thus: purified protein. The conditions noted are these: 50 mM Tris-HCl pH 8.0, 0.1 mM FMN, 30 °C.
B4: the Km is 388 ± 159 µM and the kcat was found to be 2.06 ± 1.09 s⁻¹.
For B5, in that order: 133 ± 83 µM and 2.49 ± 0.60 s⁻¹.
For B6, in that order: 390 ± 215 µM and 1.40 ± 0.42 s⁻¹.
For B1, in that order: 279 ± 30 µM and 10.93 ± 3.48 s⁻¹.
As to B7, the Km worked out at 531 ± 50 µM and the kcat stood at 0.14 ± 0.06 s⁻¹.
As for B8, the Michaelis constant (Km) is 100 ± 19 µM and the kcat is 2.36 ± 0.47 s⁻¹.
For B9, in that order: 151 ± 44 µM and 0.61 ± 0.46 s⁻¹.
For B3, in that order: 210 ± 90 µM and 11.12 ± 3.08 s⁻¹.

Substrate in another series: CCCCCCC(O)C(=O)O
Put plainly: H2O2 detection, horseradish peroxidase / o-dianisidine coupled assay. The series is classed as biochemical, Zea mays. The conditions noted are these: 50 mM Tris-HCl pH 8.0, 0.1 mM FMN, 30 °C.
Description: H2O2 detection, horseradish peroxidase / o-dianisidine coupled assay on ZmGO1
For the protein B2, the Km is reported as 136 ± 19 µM and the kcat is 5.89 ± 0.14 s⁻¹.

Still in this series, the particulars now being: 50 mM Tris-HCl pH 8.0, 0.1 mM FMN, 30 °C, printed as T158V in Table 3.
In the case of B10, the Michaelis constant (Km) is recorded as 48 ± 36 µM and the kcat was found to be 3.22 ± 0.39 s⁻¹.

Substrate in another series: CCCCCCC(O)C(=O)O
The series is described as above. The series is classed as biochemical, Arabidopsis thaliana. The conditions noted are these: 50 mM Tris-HCl pH 8.0, 0.1 mM FMN, 30 °C. The source holds these as a separate data set.
Turning to B1, the Km is on record as 487 ± 99 µM and the kcat was 3.78 ± 1.26 s⁻¹.
On to B3, for which the Michaelis constant (Km) came to 757 ± 82 µM and the kcat is 5.95 ± 0.58 s⁻¹.
